From US20190083587A1 (Novo Nordisk, published 2019)

Tests used:
hTLT-1 ECD-His = biological target: T1, hTLT-1 ECD-His (human, UniProt Q86YW5 16-162); assay: SPR Biacore, mAb immobilised directly, TLT-1 as analyte
T1 construct: Extracellular domain of human TLT-1 with C-terminal His-6 tag; the range 16-168 is computed from these; also called TLT-1-His; His tagged human TLT1
T1 sequence: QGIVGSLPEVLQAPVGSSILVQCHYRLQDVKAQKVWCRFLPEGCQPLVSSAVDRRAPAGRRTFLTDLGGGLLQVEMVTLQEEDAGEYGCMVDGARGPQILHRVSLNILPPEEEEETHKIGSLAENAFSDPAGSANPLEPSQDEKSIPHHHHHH
Protocol: Method: The mAbs of interest were either immobilized directly to a CM5 chip or by capture via a human Fc capture mAb immobilized to a CM5 chip, while TLT-1-His was immobilized by capture via an anti-His mAb CM5 chip for analysis of Fabs.
mAb direct capture: The TLT-1 mAbs were immobilised to a level of approx 500-1000 RU on a CM5 chip (50 μg/ml diluted in Na-acetate, pH 4.0) using the standard procedure recommended by the supplier. Two-fold dilutions of TLT-1 from 200 nM to 0.2 nM were tested for binding to the mAbs. Running and dilution buffer: 10 mM HEPES, 150 mM, 0.005% p20, pH 7.4. Regeneration was obtained by 10 mM Glycine, pH 1.7. mAb capture via human Fc mAb: Human Fc mAb was immobilised to approx 10.000 RU. The mAb of interest was added (approx 100 nM). Two-fold dilutions of TLT-1 from 200 nM to 0.2 nM were tested. Running and dilution buffer: 10 mM HEPES, 150 mM, 0.005% p20, pH 7.4. Regeneration was obtained in 3 M MgCl₂.

hTLT-1 ECD-HPC4 K46A = biological target: T2, hTLT-1 ECD-HPC4 K46A (human, UniProt Q86YW5 16-162); assay: SPR ProteOn, mAb captured by anti-hFc, 100 nM mutant, signal 10 s after injection
T2 construct: Built as m17; also called Ala mutant 10
T2 chain: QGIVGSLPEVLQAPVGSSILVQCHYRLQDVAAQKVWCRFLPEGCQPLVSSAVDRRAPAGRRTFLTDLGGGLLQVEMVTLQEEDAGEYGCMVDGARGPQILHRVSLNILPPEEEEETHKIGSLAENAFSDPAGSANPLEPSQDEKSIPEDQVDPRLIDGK
Protocol: (§1) Each antibody was diluted in 10 mM sodium acetate pH 5.0 to a concentration of 50 μg/ml, and was immobilized to an individual flow cell at 30 μl/min for 240 s. The antibodies were immobilized to flow cells A1-A6 (horizontal direction). After immobilization, the active sites on the flow cell were blocked with 1 M ethanolamine. The final immobilization level of capture antibody typically ranged from approximately 9,000 to 10,000 RU in one experiment. Capture of the anti-TLT-1 antibodies mAb0023, mAb0051, mAb0061 and mAb0062 was conducted by diluting to 0.5 μg/ml into HBS-EP buffer (10 mM HEPES, 150 mM NaCl, 3 mM EDTA, 0.05% surfactant P20, pH 7.4) and injected at 30 μl/min for 60 s in vertical direction, creating interspot reference points with only anti-human Fc antibodies.
(§2) The final capture level of test antibodies typically ranged from approximately 200 to 300 RU in one experiment. Binding of wt or Ala mutant hTLT-1 ECD-HPC4 protein was conducted by injecting over parallel flow cells in horizontal direction to allow for comparative analyses of binding to different captured anti-TLT-1 antibodies relative to binding to the interspot references. Each hTLT-1 ECD-HPC4 protein was diluted to 100 nM, based on the calculated average Mw, into HBS-EP buffer and injected at 30 μl/min for 240 s. The GLM chip was regenerated after each injection cycle of analyte via one 18 s injection of 1 M Formic acid followed by a 18s injection of 50 mM NaOH at 100 μl/min. This regeneration step removed the anti-TLT-1 antibody and any bound TLT-1 from the immobilized capture antibody surface, and allowed for the subsequent binding of the next test sample pair.
(§3) Data analysis was performed using the ProteOn Manager™ Software. No significant non-specific binding to the interspot control surfaces was observed. Binding curves were processed by double referencing (subtraction of interspot control surface signals as well as blank buffer injections over captured anti-TLT-1 antibodies). This allowed correction for instrument noise, bulk shift and drift during sample injections. Binding signal at 10 s after stop of analyte injection was normalized to level of captured anti-TLT-1 antibody and presented as binding relative to wt hTLT-1 ECD-HPC4 protein.

hTLT-1 ECD-HPC4 L42A = biological target: T3, hTLT-1 ECD-HPC4 L42A (human, UniProt Q86YW5 16-162); assay: as above
T3 construct: Built as m17; also called Ala mutant 8
T3 chain: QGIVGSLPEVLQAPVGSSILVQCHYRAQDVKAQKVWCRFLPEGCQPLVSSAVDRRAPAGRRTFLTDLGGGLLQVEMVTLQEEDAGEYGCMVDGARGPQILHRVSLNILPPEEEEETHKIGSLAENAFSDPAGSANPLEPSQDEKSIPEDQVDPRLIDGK
Protocol: as §1, §2, §3

hTLT-1 ECD-HPC4 R110A = biological target: T4, hTLT-1 ECD-HPC4 R110A (human, UniProt Q86YW5 16-162); assay: as above
T4 construct: Built as m17; also called Ala mutant 30
T4 chain: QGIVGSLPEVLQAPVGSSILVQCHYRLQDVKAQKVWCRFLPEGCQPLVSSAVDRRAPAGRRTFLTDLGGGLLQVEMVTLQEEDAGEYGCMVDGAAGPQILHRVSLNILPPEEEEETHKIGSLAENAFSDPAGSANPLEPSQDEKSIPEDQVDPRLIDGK
Protocol: as §1, §2, §3

hTLT-1 ECD-HPC4 Q43A = biological target: T5, hTLT-1 ECD-HPC4 Q43A (human, UniProt Q86YW5 16-162); assay: as above
T5 construct: Built as m17; also called Ala mutant 9
T5 chain: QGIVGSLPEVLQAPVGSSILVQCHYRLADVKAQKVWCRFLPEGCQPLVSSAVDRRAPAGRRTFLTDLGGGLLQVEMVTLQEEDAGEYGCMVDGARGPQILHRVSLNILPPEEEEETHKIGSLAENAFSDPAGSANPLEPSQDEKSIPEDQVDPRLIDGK
Protocol: as §1, §2, §3

hTLT-1 ECD-HPC4 M91A = biological target: T6, hTLT-1 ECD-HPC4 M91A (human, UniProt Q86YW5 16-162); assay: as above
T6 construct: Built as m17; also called Ala mutant 24
T6 chain: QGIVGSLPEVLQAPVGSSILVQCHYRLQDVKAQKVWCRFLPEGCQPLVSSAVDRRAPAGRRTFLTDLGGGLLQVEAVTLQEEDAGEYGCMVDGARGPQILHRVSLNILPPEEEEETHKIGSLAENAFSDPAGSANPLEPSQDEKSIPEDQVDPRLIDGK
Protocol: as §1, §2, §3

hTLT-1 ECD-HPC4 F54A = biological target: T7, hTLT-1 ECD-HPC4 F54A (human, UniProt Q86YW5 16-162); assay: as above
T7 construct: Built as m17; also called Ala mutant 12
T7 chain: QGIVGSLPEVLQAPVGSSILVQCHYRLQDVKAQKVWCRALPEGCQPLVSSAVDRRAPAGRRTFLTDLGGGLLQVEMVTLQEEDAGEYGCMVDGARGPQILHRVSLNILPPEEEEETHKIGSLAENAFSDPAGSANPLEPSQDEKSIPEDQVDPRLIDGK
Protocol: as §1, §2, §3

hTLT-1 ECD-HPC4 R41A = biological target: T8, hTLT-1 ECD-HPC4 R41A (human, UniProt Q86YW5 16-162); assay: as above
T8 construct: Built as m17; also called Ala mutant 7
T8 chain: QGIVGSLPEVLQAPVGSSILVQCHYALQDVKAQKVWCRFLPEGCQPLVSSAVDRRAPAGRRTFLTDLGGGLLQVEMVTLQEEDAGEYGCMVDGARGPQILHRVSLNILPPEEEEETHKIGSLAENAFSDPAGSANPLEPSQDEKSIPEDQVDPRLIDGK
Protocol: as §1, §2, §3

hTLT-1 ECD-HPC4 H116A = biological target: T9, hTLT-1 ECD-HPC4 H116A (human, UniProt Q86YW5 16-162); assay: as above
T9 construct: Built as m17; also called Ala mutant 31
T9 chain: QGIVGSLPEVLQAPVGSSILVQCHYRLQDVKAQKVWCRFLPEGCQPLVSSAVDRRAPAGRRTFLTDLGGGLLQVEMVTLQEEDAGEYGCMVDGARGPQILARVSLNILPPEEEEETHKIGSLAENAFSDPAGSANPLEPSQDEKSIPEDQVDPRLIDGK
Protocol: as §1, §2, §3

hTLT-1.126-162 = biological target: T10, hTLT-1.126-162 (human); assay: crystal structure of the Fab0100:hTLT-1.126-162 complex; complex isolated by gel filtration
T10 construct: Made by solid phase peptide synthesis; not glycosylated; also called TLT-1 stalk peptide; chain P
T10 peptide: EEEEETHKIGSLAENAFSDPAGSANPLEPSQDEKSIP
Protocol: The complex was subjected to gel filtration using a Superdex 200 HighLoad 26/60 (GE Healthcare) column eluted with PBS-buffer (pH 7.4) at a flow rate of 1 ml/min. Fractions corresponding to a volume of 3 ml were collected.
The crystal was allowed to soak for about 15 seconds, then flash frozen in liquid N₂ and during data collection kept at 100 K by a cryogenic N₂ gas stream. Crystallographic data were subsequently collected to 1.85 Å resolution at beam-line BL911-3 (Ursby, T. et al. (2004) AIP Conference Proceedings 705, 1241-1246) at MAX-lab, Lund, Sweden. Space group determination, integration and scaling of the data were made in the XDS software package. Cell parameters for the synchrotron data were determined to be 82.54, 65.32, 108.05 Å, 90°, 95.15° and 90°, for a, b, c, α, β and γ, respectively, and space group was determined to be C2. Rsym for intensities of the data set was calculated to be 6.7%.

B1: mAb0023 (antibody, V domains shown)
VH: EVRLVESGGGLVQPGGSLKLSCATSGFTFSDYFMYWIRQTPEKRLEWVAYISNGGDSSSYPDTVKGRFTISRDNAKNTLYLQMSRLKSEDTAMYYCATNKNWDDYYDMDYWGQGTSVTVSS
VL: DIVVSQSPSSLAVSAGEKVTMSCKSSQSLLNSRTRKNYLAWYQQKPGQSPKLLIYWASTRESGVPDRFTGSGSGTDFTLTISSVQAEDLAVYYCKQSYNLLTFGAGTKLELKR
notes: Mouse VH/VL, human IgG4 / kappa; also called antiTLT-1 0023mab
- Kd (hTLT-1 ECD-His): 4.36 nM
- koff (hTLT-1 ECD-His): 0.00125 s⁻¹
- kon (hTLT-1 ECD-His): 287000 M⁻¹ s⁻¹
- binding relative to wt hTLT-1 ECD-HPC4 (hTLT-1 ECD-HPC4 K46A): < 0.2 fraction of wt
- binding relative to wt hTLT-1 ECD-HPC4 (hTLT-1 ECD-HPC4 L42A): < 0.2 fraction of wt
- binding relative to wt hTLT-1 ECD-HPC4 (hTLT-1 ECD-HPC4 R110A): < 0.2 fraction of wt
- binding relative to wt hTLT-1 ECD-HPC4 (hTLT-1 ECD-HPC4 Q43A): < 0.2 fraction of wt
- binding relative to wt hTLT-1 ECD-HPC4 (hTLT-1 ECD-HPC4 M91A): < 0.4 fraction of wt

B2: mAb0062 (antibody, V domains shown)
VH: QVQLQQSGAEPMKPGASVKISCKATGYTFSSHWIEWIKQRPGHGLEWIGEILPGSGNTNYNEKFKGKATFTADTSSNTAYMQLSSLTSEDSAVYYCARGYYGLNYDWYFDVWGAGTTVTVSS
VL: DIQMTQTTSSLSASLGDRVTISCRASQDISNYLNWYQQKPDGTVKLLIFYTSRLHSGVPSRFSGSGSGTDYSLTISNLEPEDIATYYCQQDTKLPYTFGGGTKLEMKR
notes: Mouse VH/VL, human IgG4 / kappa; variant of mAb0052 (HC C91Y, Kabat); The entries seem to include signal peptides; also called antiTLT-1 0062mab; (0052HC.C91Y)2
- Kd (hTLT-1 ECD-His): 4.12 nM
- koff (hTLT-1 ECD-His): 0.00134 s⁻¹
- kon (hTLT-1 ECD-His): 326000 M⁻¹ s⁻¹
- binding relative to wt hTLT-1 ECD-HPC4 (hTLT-1 ECD-HPC4 F54A): < 0.6 fraction of wt
- binding relative to wt hTLT-1 ECD-HPC4 (hTLT-1 ECD-HPC4 R41A): < 0.2 fraction of wt
- binding relative to wt hTLT-1 ECD-HPC4 (hTLT-1 ECD-HPC4 L42A): < 0.6 fraction of wt
- binding relative to wt hTLT-1 ECD-HPC4 (hTLT-1 ECD-HPC4 R110A): < 0.2 fraction of wt
- binding relative to wt hTLT-1 ECD-HPC4 (hTLT-1 ECD-HPC4 Q43A): < 0.4 fraction of wt
- binding relative to wt hTLT-1 ECD-HPC4 (hTLT-1 ECD-HPC4 H116A): < 0.6 fraction of wt
- binding relative to wt hTLT-1 ECD-HPC4 (hTLT-1 ECD-HPC4 M91A): < 0.4 fraction of wt

B3: Fab0100 (Fab, V domains shown)
VH: EVKLLESGGGLVQPGGSLKLSCAASGFDFSRYWMTWVRQAPGKGLEWIGEINPDSSTINYNPSLKDKFIISRDNAKNTLYLQMSEVRSEDTALYYCASGVFTSWGQGTLVTVSA
VL: DVVMTQTPLSLPVSLGDQASISCRSSQSLVHRNGNTYFHWALQKPGQSPKLLIYKVSNRFSGVPDRFSGSGSGTDFTLKISRVEAEDLGVYFCSQSTHVPYTFGGGTKLEIKR
notes: also called anti-TLT-1 Fab; identical to Fab0061
- binding result (hTLT-1.126-162): binds
